Source: the RNAGym collection of RNA variant scans (doi:10.7554/elife.80360)

B1: HDV Ribozyme (parent)
chain: GGCCGGCAUGGUCCCAGCCUCCUCGCUGGCGCCGGCUGGGCAACAUUCCGAGGGGACCGUCCCCUCGGUAAUGGCGAAUGGGACCCA

Variants of: B1
Test: self-cleavage, relative activity (ratio to wild type); higher = more cleavage; co-transcriptional

Point of comparison: G1C G82A, self-cleavage 0.0475. Against it:
- G2A U46C — higher, 0.109
- G2A C24G — lower, 0.0378
- G1U G29A — higher, 0.336
- G1C A78C — lower, 0
- G1U C26U — higher, 0.222
- G2A G6A — higher, 0.0563
- G2A C7G — lower, 0.017
- G2A C7U — higher, 0.0852
- G2C U20C — higher, 0.0536
- G1U G76A — higher, 0.62
- G2U C86G — higher, 0.117
- G2C C49G — higher, 0.145
- G1C A43G — lower, 0
- G2A A16U — higher, 0.0665
- G1U A87U — higher, 0.507
- G1C C4A — lower, 0
- G2C A83G — higher, 0.132
- G2C A83C — lower, 0.0302
- G1U A42U — higher, 0.332
- G2C G52U — lower, 0.032
- G2C G52C — lower, 0
- G1C U79G — higher, 0.0723
- G2A C26A — higher, 0.216
- G2A C26G — higher, 0.166
- G2U C24A — higher, 0.0554
- G2U C26U — higher, 0.0852
- G2A U60C — higher, 0.354
- G2U G34A — higher, 0.0671
- G2U G34C — higher, 0.0484
- G1C U47G — higher, 0.128
- G1C G34A — lower, 0.0405
- G1U A56C — higher, 0.494
- G2C C62A — lower, 0.0462
- G1C G74U — higher, 0.133
- G2C G59A — lower, 0.0193
- G2U G29C — lower, 0.0252
- G2A G10A — lower, 0.0256
- G2U G81U — lower, 0.0198
- G2U U72C — lower, 0.0191
- G2C A45C — higher, 0.0528
- G2C A45G — higher, 0.107
- G1C C49A — higher, 0.237
- G1U C84G — higher, 0.297
- G2C G54C — lower, 0.0208
- G2A U37A — higher, 0.0755
- G2C C3G — lower, 0
- G2A G39A — lower, 0.0171
- G2C C19U — higher, 0.0665
- G1C U23C — higher, 0.0831
- G1C U23G — higher, 0.227
- G2A U72A — higher, 0.053
- G2C U46G — higher, 0.0959
- G2C U46A — higher, 0.0911
- G1C C86U — higher, 0.262
- G2U G82C — higher, 0.112
- G2A G50A — lower, 0.0386
- G1C U46A — higher, 0.138
- G1C U46G — higher, 0.119
- G2A A43C — higher, 0.0665
- G2A C41A — higher, 0.168
- G2C G76U — lower, 0.0455
- G1U A78G — higher, 0.346
- G1U C14A — higher, 0.222
- G1U C14G — higher, 0.397
- G1C A16G — higher, 0.196
- G1U U47A — higher, 0.295
- G2A U65C — higher, 0.117
- G2A U65G — higher, 0.223
- G1U U65C — higher, 0.399
- G2A G31C — lower, 0.0354
- G1C C18G — lower, 0
- G1C G5A — higher, 0.0536
- G2A U20G — lower, 0
- G2A U20A — lower, 0.0361
- G2C C57G — lower, 0.0228
- G1C C7G — higher, 0.0875
- G1C C48U — higher, 0.227
- G2C U9G — higher, 0.0723
- G1C C41G — lower, 0
- G1C G17C — lower, 0
- G1C G17A — higher, 0.332
- G1C G17U — higher, 0.0573
- G2A G11A — higher, 0.0786
- G2A G11U — lower, 0.0328
- G2C G39A — higher, 0.121
- G2C G39C — lower, 0
- G2U C4A — lower, 0
- G2U C4U — higher, 0.0755
- G2C U60G — lower, 0.0326
- G2C U60A — higher, 0.0779
- G2C A77U — higher, 0.119
- G1C U69C — higher, 0.158
- G2U U23A — lower, 0.0391
- G2U U23G — lower, 0.0287
- G1C G38U — lower, 0.0396
- G1C G38C — lower, 0
- G1C G40C — the same, 0.0475
- G2A C36A — higher, 0.228
- G1U U60C — higher, 0.0811
- G1C C84G — lower, 0
- G2A C49U — higher, 0.237
- G1C C3U — higher, 0.34
- G2U A51G — higher, 0.0683
- G1C G29A — higher, 0.0536
- G1C G29U — higher, 0.142
- G2C C61U — higher, 0.137
- G2C C61G — higher, 0.0647
- G1U A51G — higher, 0.514
- G1U A51C — higher, 0.231
- G1C C64U — higher, 0.155
- G2C G25U — higher, 0.0702
- G1C C32G — lower, 0
- G1U G55C — higher, 0.455
- G2U G10A — lower, 0
- G2U G10C — higher, 0.0621
- G2U G10U — lower, 0.038
- G2A C66U — higher, 0.192
- G2U C64A — lower, 0.0339
- G2U C64U — higher, 0.111
- G1U C86A — higher, 0.32
- G1C C30U — higher, 0.0755
- G2U C57U — lower, 0.0365
- G2C G11U — higher, 0.0519
- G2A C86G — higher, 0.0755
- G2U A43G — lower, 0.0205
- G2C C26U — higher, 0.124
- G2U C7G — lower, 0
- G2C G28A — the same, 0.0475
- G2C G28C — the same, 0.0475
- G2C U47G — higher, 0.0923
- G1C G59C — higher, 0.365
- G1C C22U — higher, 0.148
- G2U G38C — lower, 0.0181
- G2U A56G — higher, 0.0674
- G1C G2C — higher, 1.06
- G1C A71U — lower, 0
- G2U G55U — higher, 0.0654
- G2A C22G — lower, 0.0191
- G2U U60C — lower, 0.0287
- G1C C85U — higher, 0.266
- G1C C85G — higher, 0.151
- G2A C63G — higher, 0.0804
- G2A C63U — higher, 0.162
- G2U C85A — higher, 0.104
- G1A U72C — higher, 0.107
- G1A U72G — higher, 0.0665
- G1A U72A — higher, 0.246
- G1C G31U — higher, 0.0791
- G1C G52C — higher, 0.256
- G2U G52U — higher, 0.055
- G1C A51U — higher, 0.222
- G1U C49A — higher, 0.502
- G2A G59A — higher, 0.208
- G1U C32G — higher, 0.305
- G1U C32U — higher, 0.532
- G1C G76A — higher, 0.26
- G1C G68C — higher, 0.0978
- G1C G6C — lower, 0
- G2C G55C — higher, 0.0656
- G2C G55U — lower, 0.0346
- G2C G40U — lower, 0.0409
- G2C G40A — higher, 0.0773
- G1U C48G — higher, 0.243
- G2U A42G — higher, 0.0767
- G2C G80A — higher, 0.0573
- G2A G73U — lower, 0.0443
